Measured values: publication PMC9313427, “Identification and Characterization of an RRM-Containing, RNA Binding Protein in Acinetobacter baumannii”

How the values were obtained:
Conditions in all cases: protein: recombinant; tags: C-terminal 6xHis; label: 5'-biotin; single strand
[1] = target: T1, rAB-Elavl (Acinetobacter baumannii, UniProt D0CAL6 1-86); assay: AlphaScreen saturation (probe length series); EC50; unit implied; named ARE pos 29 nt in text; AlphaScreen: 25 mM HEPES pH 7.4, 100 mM NaCl, 0.1% BSA, RT; REMSA: 20 mM HEPES pH 7.5, 50 mM KCl, 450 uM BSA, 0.25% glycerol, RT (gel at 4 C); NMR: 20 mM HEPES
T1 sequence: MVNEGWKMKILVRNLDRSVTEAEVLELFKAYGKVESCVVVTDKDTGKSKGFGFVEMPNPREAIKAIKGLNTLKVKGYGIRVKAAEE

[2] = target: T1, rAB-Elavl; assay: AlphaScreen saturation; EC50, probe titrated, 500 nM protein; conflicts with 35.62 nM in Fig 8C; AlphaScreen: 25 mM HEPES pH 7.4, 100 mM NaCl, 0.1% BSA, RT; REMSA: 20 mM HEPES pH 7.5, 50 mM KCl, 450 uM BSA, 0.25% glycerol, RT (gel at 4 C); NMR: 20 mM HEPES
[3] = target: T1, rAB-Elavl; assay: HTRF-FRET saturation; EC50; AlphaScreen: 25 mM HEPES pH 7.4, 100 mM NaCl, 0.1% BSA, RT; REMSA: 20 mM HEPES pH 7.5, 50 mM KCl, 450 uM BSA, 0.25% glycerol, RT (gel at 4 C); NMR: 20 mM HEPES
[4] = target: T1, rAB-Elavl; assay: AlphaScreen time-course kinetics (koff/kon); koff 0.02687 min-1; kon printed as 2.035 M-1 min-1 (exponent apparently lost); AlphaScreen: 25 mM HEPES pH 7.4, 100 mM NaCl, 0.1% BSA, RT; REMSA: 20 mM HEPES pH 7.5, 50 mM KCl, 450 uM BSA, 0.25% glycerol, RT (gel at 4 C); NMR: 20 mM HEPES
[5] = target: T1, rAB-Elavl; assay: AlphaScreen saturation (probe length series); EC50; unit implied; AlphaScreen: 25 mM HEPES pH 7.4, 100 mM NaCl, 0.1% BSA, RT; REMSA: 20 mM HEPES pH 7.5, 50 mM KCl, 450 uM BSA, 0.25% glycerol, RT (gel at 4 C); NMR: 20 mM HEPES
[6] = target: T1, rAB-Elavl; assay: AlphaScreen saturation; EC50, probe titrated, 500 nM protein; AlphaScreen: 25 mM HEPES pH 7.4, 100 mM NaCl, 0.1% BSA, RT; REMSA: 20 mM HEPES pH 7.5, 50 mM KCl, 450 uM BSA, 0.25% glycerol, RT (gel at 4 C); NMR: 20 mM HEPES
[7] = target: T1, rAB-Elavl; assay: HTRF-FRET saturation; EC50; unit implied; legend: not well bound; AlphaScreen: 25 mM HEPES pH 7.4, 100 mM NaCl, 0.1% BSA, RT; REMSA: 20 mM HEPES pH 7.5, 50 mM KCl, 450 uM BSA, 0.25% glycerol, RT (gel at 4 C); NMR: 20 mM HEPES
[8] = target: T1, rAB-Elavl; assay: AlphaScreen saturation (probe length series); EC50 not converged; legend: minimal length for binding is 19 nt; AlphaScreen: 25 mM HEPES pH 7.4, 100 mM NaCl, 0.1% BSA, RT; REMSA: 20 mM HEPES pH 7.5, 50 mM KCl, 450 uM BSA, 0.25% glycerol, RT (gel at 4 C); NMR: 20 mM HEPES

B1: ARE pos (ssRNA)
RNA: AUUAUUUAUUAUUUAUUUAUUAUUUA
apparent K (half saturation) [1]: 35.6 nM | apparent K (half saturation) [2]: 0.5 nM | apparent K (half saturation) [3]: 35.1 nM | Kd [4]: 13.2 nM

B2: ARE pos 19 (ssRNA)
RNA: AUUAUUUAUUAUUUAUUUA
apparent K (half saturation) [5]: 64.8 nM

B3: ARE neg (ssRNA)
RNA: ACCACCCACCACCCACCCACCACCCA
apparent K (half saturation) [6]: 257 nM | apparent K (half saturation) [7]: 946 nM

B4: ARE pos 11 (ssRNA)
RNA: AUUAUUUAUUA
binding result [8]: no binding
